# Measurements taken from publication PMC4490372, “Architecture of TFIIIC and its role in RNA polymerase III pre-initiation complex assembly” (Nature Communications, 2015).
# B1: τ131 (123–566), TPR array, wild type [S. cerevisiae] / τ138 (546–693), eWH-τIR [S. cerevisiae] (parent complex)
# chain 1: VLDPEVAQLLSQANEAFVRNDLQVAERLFNEVIKKDARNFAAYETLGDIYQLQGRLNDCCNSWFLAAHLNASDWEFWKIVAILSADLDHVRQAIYCFSRVISLNPMEWESIYRRSMLYKKTGQLARALDGFQRLYMYNPYDANILRELAILYVDYDRIEDSIELYMKVFNANVERREAILAALENALDSSDEESAAEGEDADEKEPLEQDEDRQMFPDINWKKIDAKYKCIPFDWSSLNILAELFLKLAVSEVDGIKTIKKCARWIQRRESQTFWDHVPDDSEFDNRRFKNSTFDSLLAAEKEKSYNIPIDIRVRLGLLRLNTDNLVEALNHFQCLYDETFSDVADLYFEAATALTRAEKYKEAIDFFTPLLSLEEWRTTDVFKPLARCYKEIESYETAKEFYELAIKSEPDDLDIRVSLAEVYYRLNDPETFKHMLVDVVEMR
# chain 2: SARSLRSLQRQRAILKVMNTIGGVAYLREQFYESVSKYMGSTTTLDKKTVRGDVDLMVESEKLGARTEPVSGRKIIFLPTVGEDAIQRYILKEKDSKKATFTDVIHDTEIYFFDQTEKNRFHRGKKSVERIRKFQNRQKNAKIKASDD
# B2: τ131 (123–566), TPR array, wild type [S. cerevisiae] / τ138 (641–693), τ131-Interaction Region (τIR) [S. cerevisiae] (parent complex)
# chain 1: B1 chain 1
# chain 2: SKKATFTDVIHDTEIYFFDQTEKNRFHRGKKSVERIRKFQNRQKNAKIKASDD
# Variants of: B1
# Assay: ITC; parent: 100 nM
row,Kd [nM],Variant
1,415,chain 1 VLDPEVAQLLSQANEAFVRNDLQVAERLFNEVIKKDARNFAAYETLGDIYQLQGRLNDCCNSWFLAAHLNASDWEFWKIVAILSADLDHVRQAIYCFSRVISLNPMEWESIYRRSMLYKKTGQLARALDGFQRLYMYNPYDANILRELAILYVDYDRIEDSIELYMKVFNANVERREAILAALENALDSSDEESAAEGEDADEKEPLEQDEDRQMFPDINWKKIDAKYKCIPFDWSSLNILAELFLKLAVSEVDGIKTIKKCARWIQRRESQTFWDHVPDDSEFDNRRFKNSTFDSLLAAEKEKSYNIPIDIRVRLGLLRLNTDNLVEALNHFQCLYDETFSDVADLYFKAATALTRAEKYKEAIDFFTPLLSLEEWRTTDVFKPLARCYKEIESYETAKEFYELAIKSEPDDLDIRVSLAEVYYRLNDPETFKHMLVDVVEMR [chain 1 E350K]
2,971,chain 1 VLDPEVAQLLSQANEAFVRNDLQVAERLFNEVIKKDARNFAAYETLGDIYQLQGRLNDCCNSWFLAAHLNASDWEFWKIVAILSADLDHVRQAIYCFSRVISLNPMEWESIYRRSMLYKKTGQLARALDGFQRLYMYNPYDANILRELAILYVDYDRIEDSIELYMKVFNANVERREAILAALENALDSSDEESAAEGEDADEKEPLEQDEDRQMFPDINWKKIDAKYKCIPFDWSSLNILAELFLKLAVSEVDGIKTIKKCARWIQRRESQTFWDHVPDDSEFDNRRFKNSTFDSLLAAEKEKSYNIPIDIRVRLGLLRLNTDNLVEALNHFQCLYDETFSDVADLYFEAATALTRAEKYKEAIDFFTPLLSLEKWRTTDVFKPLARCYKEIESYETAKEFYELAIKSEPDDLDIRVSLAEVYYRLNDPETFKHMLVDVVEMR [chain 1 E376K]

# Variants of: B2
# Assay: ITC; parent: 80 nM
row,Kd [nM],Variant
1,833,chain 1 VLDPEVAQLLSQANEAFVRNDLQVAERLFNEVIKKDARNFAAYETLGDIYQLQGRLNDCCNSWFLAAHLNASDWEFWKIVAILSADLDHVRQAIYCFSRVISLNPMEWESIYRRSMLYKKTGQLARALDGFQRLYMYNPYDANILRELAILYVDYDRIEDSIELYMKVFNANVERREAILAALENALDSSDEESAAEGEDADEKEPLEQDEDRQMFPDINWKKIDAKYKCIPFDWSSLNILAELFLKLAVSEVDGIKTIKKCARWIQRRESQTFWDHVPDDSEFDNRRFKNSTFDSLLAAEKEKSYNIPIDIRVRLGLLRLNTDNLVEALNHFQCLYDETFSDVADLYFEAATALTRAEKYKEAIDFFTPLLSLEKWRTTDVFKPLARCYKEIESYETAKEFYELAIKSEPDDLDIRVSLAEVYYRLNDPETFKHMLVDVVEMR [chain 1 E376K]
2,89,chain 1 VLDPEVAQLLSQANEAFVRNDLQVAERLFNEVIKKDARNFAAYETLGDIYQLQGRLNDCCNSWFLAAHLNASDWEFWKIVAILSADLDHVRQAIYCFSRVISLNPMEWESIYRRSMLYKKTGQLARALDGFQRLYMYNPYDANILRELAILYVDYDRIEDSIELYMKVFNANVERREAILAALENALDSSDEESAAEGEDADEKEPLEQDEDRQMFPDINWKKIDAKYKCIPFDWSSLNILAELFLKLAVSEVDGIKTIKKCARWIQRRESQTFWDHVPDDSEFDNRRFKNSTFDSLLAAEKEKSYNIPIDIRVRLGLLRLNTDNLVEALNHFQCLYDETFSDVADLYFEAATALTRAEKYKEAIDFFTPLLSLKEWRTTDVFKPLARCYKEIESYETAKEFYELAIKSEPDDLDIRVSLAEVYYRLNDPETFKHMLVDVVEMR [chain 1 E375K]
3,833,chain 1 VLDPEVAQLLSQANEAFVRNDLQVAERLFNEVIKKDARNFAAYETLGDIYQLQGRLNDCCNSWFLAAHLNASDWEFWKIVAILSADLDHVRQAIYCFSRVISLNPMEWESIYRRSMLYKKTGQLARALDGFQRLYMYNPYDANILRELAILYVDYDRIEDSIELYMKVFNANVERREAILAALENALDSSDEESAAEGEDADEKEPLEQDEDRQMFPDINWKKIDAKYKCIPFDWSSLNILAELFLKLAVSEVDGIKTIKKCARWIQRRESQTFWDHVPDDSEFDNRRFKNSTFDSLLAAEKEKSYNIPIDIRVRLGLLRLNTDNLVEALNHFQCLYDETFSDVADLYFKAATALTRAEKYKEAIDFFTPLLSLEEWRTTDVFKPLARCYKEIESYETAKEFYELAIKSEPDDLDIRVSLAEVYYRLNDPETFKHMLVDVVEMR [chain 1 E350K]
